From patent publication US20110152166A1, “METHOD OF MODULATION OF PROTEIN PHOSPHORYLATION-DEPENDENT CONFORMATIONAL TRANSITIONS WITH LOW MOLECULAR WEIGHT COMPOUNDS” (priority 2006, published 2011)

Key:
[1] = target: T1, S6K11-364K144N (Rattus norvegicus, UniProt P67999, K167N); assay: S6K1 in vitro reconstitution kinase assay with tail peptides; format: biochemical; settings: peptide 90 μM
T1 construct: Purified HA-S6K1-364 was incubated with synthetic S6K1 (rat) tail peptides; made in house; host or cells: COS7; anti-HA immunoprecipitate
Experimental: FIG. 13. The tail phosphate synergistically enhances the ability of the HM phosphate to activate S6K, dependent on the tail phosphate-binding site. (A) The kinase activity of purified kinase domain of S6K1 (S6K11-364), pre-phosphorylated by PDK1 in the activation loop, was determined in the presence of increasing concentrations of synthetic S6K1 tail peptide (residues 366-395) that was either non-phosphorylated (S371/T389), phosphorylated at Ser371 (pS371/T389) or Thr389 (5371/pT389) or phosphorylated at both sites (pS371/pT389). (B) The kinase activity of S6K11-364 and S6K11-364K144N, either pre-phosphorylated or not by PDK1, was determined in the absence or presence of 90 μM S371/pT389 or pS371/pT389. (C) pS371/pT389 S6K1 tail peptide was biotinylated and used to coat streptavidin Sensor Chips. The chips were thereafter analyzed for binding to purified GST-S6K11-365 or GST-56K11-365K144N. (A-C) Experiments were repeated at least 3 times and activity data (expressed as percent) are means±SD.
We established an in vitro reconstitution assay that could test a direct activation of the AGC kinase domain by the tail phosphate and characterize its cooperation with the HM and activation loop phosphates. […] Subsequently, the kinase activity of S6K11-364 was determined. […]

[2] = target: T2, PDK150-360 (Homo sapiens, UniProt O15530); assay: Surface plasmon resonance, PDK1 binding to S6K tail peptides
T2 construct: the catalytic domain of PDK1 comprising residues 50-360
T2 sequence (O15530 50-360): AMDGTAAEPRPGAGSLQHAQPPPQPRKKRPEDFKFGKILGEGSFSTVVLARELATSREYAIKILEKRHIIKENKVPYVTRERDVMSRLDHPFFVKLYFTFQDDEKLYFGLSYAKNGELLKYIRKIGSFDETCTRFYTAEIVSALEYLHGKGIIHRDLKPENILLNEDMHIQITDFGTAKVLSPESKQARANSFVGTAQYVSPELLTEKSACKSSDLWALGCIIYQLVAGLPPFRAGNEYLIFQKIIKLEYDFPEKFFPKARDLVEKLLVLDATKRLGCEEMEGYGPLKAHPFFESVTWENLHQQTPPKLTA
Experimental: FIG. 21 (A) Aliquots of S6K1 protein from bar 1, 2, 5 and 6 in FIG. 5B were subjected to immunoblotting with phosphorylation site specific Ab against the activation loop or anti-HA Ab. (B) The kinase activity of PKB<143-479, prephosphorylated by PDK1 in the activation loop, was determined in the presence of increasing concentrations of synthetic PRK2 tail peptides encompassing the HM, which were either nonphosphorylated (PIFtide) or phosphorylated at the tail site (pT958-PIFtide). […] (C) The kinase activity of purified PDK1 was determined in the presence of increasing concentrations of synthetic S6K tail peptide (residues 366-395) that was either phosphorylated at T389 (S371/pT389) or phosphorylated at both 5389 and 5371 (pS371/pT389). Kinase activity is expressed as percent, and data are means+/−SD of 3 independent experiments. (D) Synthetic S371/pT389 S6K tail peptide and pS371/pT389 S6K tail peptide were biotinylated and used to coat streptavidin Sensor Chips. PDK150-360 was injected at different concentrations (0.05-5.4 mM) onto the peptide coated chips. In the inserts, the kinetic constants were obtained by fitting the data to a hyperbola using kaleidagraph software. Representative results from one of several experiments are shown.
BiaCore analysis was performed as described in Biondi et al. (2000). […]

T1 sequence (P67999 24-387 K167N): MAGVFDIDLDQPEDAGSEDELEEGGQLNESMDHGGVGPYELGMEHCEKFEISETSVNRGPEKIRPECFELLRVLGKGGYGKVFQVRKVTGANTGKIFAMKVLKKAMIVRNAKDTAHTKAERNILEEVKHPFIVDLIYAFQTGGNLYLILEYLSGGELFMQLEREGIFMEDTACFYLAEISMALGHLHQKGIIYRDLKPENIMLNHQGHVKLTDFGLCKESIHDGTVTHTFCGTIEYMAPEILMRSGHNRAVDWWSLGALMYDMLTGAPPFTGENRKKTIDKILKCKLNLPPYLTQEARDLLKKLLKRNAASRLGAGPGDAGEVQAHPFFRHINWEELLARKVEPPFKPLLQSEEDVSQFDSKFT

With “S371/pT389: synthetic S6K1 tail peptide (residues 366-395) phosphorylated in the HM” the “activation of S6K11-364K144N (in words)” value [1] was “activated normally” and the “binding of PDK1 to tail peptide (in words)” value [2] was “bound equally well”.
